For series [1], the target named is T1, TrkH-TrkA complex (TrkHA) (Vibrio parahaemolyticus, UniProt Q87KD2).
T1 construct: gene VP3045; full-length TrkH with C-terminal TEV site and His10; full-length TrkA with N-terminal GST cut by TEV; each made in E. coli BL21(DE3) and mixed; for patch clamp both co-expressed from modified pET vectors in E. coli giant spheroplasts; TrkH dimer with TrkA tetramer; with Trk system potassium uptake protein TrkH
T1 sequence (Q87KD2 1-458): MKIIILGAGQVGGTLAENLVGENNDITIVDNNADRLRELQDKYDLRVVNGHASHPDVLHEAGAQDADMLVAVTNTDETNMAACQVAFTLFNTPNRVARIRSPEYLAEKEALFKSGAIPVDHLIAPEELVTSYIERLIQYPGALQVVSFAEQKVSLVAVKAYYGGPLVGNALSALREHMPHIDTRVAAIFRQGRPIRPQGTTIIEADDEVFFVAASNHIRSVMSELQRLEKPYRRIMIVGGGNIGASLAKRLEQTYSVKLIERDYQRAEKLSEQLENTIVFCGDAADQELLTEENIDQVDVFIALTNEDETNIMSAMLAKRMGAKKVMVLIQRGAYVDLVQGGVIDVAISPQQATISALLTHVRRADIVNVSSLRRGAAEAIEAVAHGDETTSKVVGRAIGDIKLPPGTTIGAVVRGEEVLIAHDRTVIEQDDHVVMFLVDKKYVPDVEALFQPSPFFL
T1 sequence (Q87TN7 1-485 partner): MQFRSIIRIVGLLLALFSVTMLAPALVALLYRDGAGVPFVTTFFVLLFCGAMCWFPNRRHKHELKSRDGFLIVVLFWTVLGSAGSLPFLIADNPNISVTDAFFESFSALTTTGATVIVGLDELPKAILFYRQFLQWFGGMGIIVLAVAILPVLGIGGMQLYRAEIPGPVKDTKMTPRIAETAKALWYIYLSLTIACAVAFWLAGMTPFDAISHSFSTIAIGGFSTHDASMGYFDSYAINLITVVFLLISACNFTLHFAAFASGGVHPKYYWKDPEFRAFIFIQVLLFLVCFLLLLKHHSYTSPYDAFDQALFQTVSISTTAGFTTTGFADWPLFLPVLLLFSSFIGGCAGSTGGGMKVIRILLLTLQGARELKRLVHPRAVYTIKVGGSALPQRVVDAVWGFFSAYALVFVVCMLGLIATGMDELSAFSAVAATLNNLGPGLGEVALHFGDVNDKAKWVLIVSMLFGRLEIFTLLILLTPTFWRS
Nature of the series: single-channel patch clamp, inside-out patches of E. coli giant spheroplasts. The conditions noted are these: 150 mM KCl, 10 mM HEPES pH 7.4, same wild-type value also cited to earlier work. It is filed as biochemical. (In general: Patch clamp records ionic current or voltage across a cell membrane.)

For series [2], the target named is T1, TrkH-TrkA complex (TrkHA). Nature of the series: X-ray crystallography, […] A. It is filed as binding. The conditions noted are these: 10 mM ADP; pH 7.2; 20 °C; site: N2 domain of TrkA only.
Series [3] deals with T1, TrkH-TrkA complex (TrkHA). Nature of the series: X-ray crystallography, […] A. As to conditions: 10 mM ATPγS; MgCl2 50 mM; pH 7.3; 20 °C; sites: N1 and N2 domains of TrkA. The series is classed as binding.
The target of series [4] is TrkH from Vibrio parahaemolyticus, wild type (Vibrio parahaemolyticus) (UniProt Q87TN7).
Series [5] deals with TrkA from Vibrio parahaemolyticus, wild type (Vibrio parahaemolyticus). Nature of the series: crystal structure; TrkH-TrkA complex crystallised in the presence of 10 mM ATPγS (TrkHA-ATPγS), 3.85 Å; 20 °C, MgCl2 50 mM, NH4H2PO4 50 mM, HEPES pH 7.3, PEG400 20%.
The target is the same in series [6]. Nature of the series: crystal structure; TrkH-TrkA complex crystallised in the presence of 10 mM ADP (TrkHA-ADP), 3.53 Å; 20 °C, magnesium acetate 100 mM, HEPES pH 7.2, PEG400 26%, 2-propanol 10%.
Series [7] shares this target. Description: cryo-EM structure; TrkH-TrkA complex frozen on grids in the presence of 10 mM ATP (TrkHA-ATP), overall 3.0 Å; 150 mM KCl, 20 mM HEPES pH 7.5, 5 mM β-mercaptoethanol, 3.5 mM DM.
Series [8] concerns the molecule itself. Description: crystal structure; TrkH-TrkA complex crystallised in the presence of 10 mM ADP (TrkHA-ADP), 3.53 Å; 20 °C, magnesium acetate 100 mM, HEPES pH 7.2, PEG400 26%, 2-propanol 10%.

Take `Nc1ncnc2c1ncn2[C@@H]1O[C@H](COP(=O)(O)OP(=O)(O)O)[C@@H](O)[C@H]1O` [ADP]: in series [1] (5 mM ADP, closes channel), the “Popen at 5 mM” value worked out at 0.02 ± 0.002. In addition, the “X-ray crystallography, 3.53 A” value in series [2] is “each TrkA has a prominent non-protein density in the N2 domain in which we modeled”.
For the molecule `Nc1ncnc2c1ncn2[C@@H]1O[C@H](COP(=O)(O)OP(=O)(O)OP(=O)(O)O)[C@@H](O)[C@H]1O` [ATP], the “Popen at 5 mM” value in series [1] (5 mM ATP, activator) amounted to 0.87 ± 0.003.
Take `Nc1ncnc2c1ncn2[C@@H]1O[C@H](COP(=O)(O)OP(=O)(O)OP(O)(O)=S)[C@@H](O)[C@H]1O` [ATPγS]: the “X-ray crystallography, 3.85 A” value in series [3] was “ATPγS is found in both the N1 and N2 domains”.
In series [4], “TrkA from Vibrio parahaemolyticus, wild type (natural protein)” returned a single-channel open probability (Popen) of TrkHA wt, inside-out patches of E. coli spheroplasts, in ADP of 0.02; a single-channel open probability (Popen) of TrkHA wt, inside-out patches of E. coli spheroplasts, in ATP of 0.87; a single-channel open probability (Popen) of TrkHA wt, inside-out patches of E. coli spheroplasts, no ligand of 0.17. The stoichiometry N (commonly the number of molecules, sites or subunits per partner or assembly) in series [5] was 4. Moreover, the stoichiometry N in series [6] stood at 4. In addition, the stoichiometry N in series [7] stood at 2.

B1: TrkH from Vibrio parahaemolyticus, wild type (natural protein, UniProt Q87TN7 1-485, looked up)
chain: MQFRSIIRIVGLLLALFSVTMLAPALVALLYRDGAGVPFVTTFFVLLFCGAMCWFPNRRHKHELKSRDGFLIVVLFWTVLGSAGSLPFLIADNPNISVTDAFFESFSALTTTGATVIVGLDELPKAILFYRQFLQWFGGMGIIVLAVAILPVLGIGGMQLYRAEIPGPVKDTKMTPRIAETAKALWYIYLSLTIACAVAFWLAGMTPFDAISHSFSTIAIGGFSTHDASMGYFDSYAINLITVVFLLISACNFTLHFAAFASGGVHPKYYWKDPEFRAFIFIQVLLFLVCFLLLLKHHSYTSPYDAFDQALFQTVSISTTAGFTTTGFADWPLFLPVLLLFSSFIGGCAGSTGGGMKVIRILLLTLQGARELKRLVHPRAVYTIKVGGSALPQRVVDAVWGFFSAYALVFVVCMLGLIATGMDELSAFSAVAATLNNLGPGLGEVALHFGDVNDKAKWVLIVSMLFGRLEIFTLLILLTPTFWRS
notes: TrkH, Vibrio parahaemolyticus, full-length gene in a modified pET vector; TEV protease site followed by a 10-polyhistidine tag at the C terminus; printed residue numbers run to 485; Homodimer in all three structures; also called TrkH (wt)
With B1, the “stoichiometry N” value in series [8] worked out at 2.
